Patent publication US9505823

Target: IGF-I receptor (on L6 cells) (UniProt P24062)
Experiment: cell-based or functional assay

Chain of UniProt P24062 (P24062 31-1370 limits assumed): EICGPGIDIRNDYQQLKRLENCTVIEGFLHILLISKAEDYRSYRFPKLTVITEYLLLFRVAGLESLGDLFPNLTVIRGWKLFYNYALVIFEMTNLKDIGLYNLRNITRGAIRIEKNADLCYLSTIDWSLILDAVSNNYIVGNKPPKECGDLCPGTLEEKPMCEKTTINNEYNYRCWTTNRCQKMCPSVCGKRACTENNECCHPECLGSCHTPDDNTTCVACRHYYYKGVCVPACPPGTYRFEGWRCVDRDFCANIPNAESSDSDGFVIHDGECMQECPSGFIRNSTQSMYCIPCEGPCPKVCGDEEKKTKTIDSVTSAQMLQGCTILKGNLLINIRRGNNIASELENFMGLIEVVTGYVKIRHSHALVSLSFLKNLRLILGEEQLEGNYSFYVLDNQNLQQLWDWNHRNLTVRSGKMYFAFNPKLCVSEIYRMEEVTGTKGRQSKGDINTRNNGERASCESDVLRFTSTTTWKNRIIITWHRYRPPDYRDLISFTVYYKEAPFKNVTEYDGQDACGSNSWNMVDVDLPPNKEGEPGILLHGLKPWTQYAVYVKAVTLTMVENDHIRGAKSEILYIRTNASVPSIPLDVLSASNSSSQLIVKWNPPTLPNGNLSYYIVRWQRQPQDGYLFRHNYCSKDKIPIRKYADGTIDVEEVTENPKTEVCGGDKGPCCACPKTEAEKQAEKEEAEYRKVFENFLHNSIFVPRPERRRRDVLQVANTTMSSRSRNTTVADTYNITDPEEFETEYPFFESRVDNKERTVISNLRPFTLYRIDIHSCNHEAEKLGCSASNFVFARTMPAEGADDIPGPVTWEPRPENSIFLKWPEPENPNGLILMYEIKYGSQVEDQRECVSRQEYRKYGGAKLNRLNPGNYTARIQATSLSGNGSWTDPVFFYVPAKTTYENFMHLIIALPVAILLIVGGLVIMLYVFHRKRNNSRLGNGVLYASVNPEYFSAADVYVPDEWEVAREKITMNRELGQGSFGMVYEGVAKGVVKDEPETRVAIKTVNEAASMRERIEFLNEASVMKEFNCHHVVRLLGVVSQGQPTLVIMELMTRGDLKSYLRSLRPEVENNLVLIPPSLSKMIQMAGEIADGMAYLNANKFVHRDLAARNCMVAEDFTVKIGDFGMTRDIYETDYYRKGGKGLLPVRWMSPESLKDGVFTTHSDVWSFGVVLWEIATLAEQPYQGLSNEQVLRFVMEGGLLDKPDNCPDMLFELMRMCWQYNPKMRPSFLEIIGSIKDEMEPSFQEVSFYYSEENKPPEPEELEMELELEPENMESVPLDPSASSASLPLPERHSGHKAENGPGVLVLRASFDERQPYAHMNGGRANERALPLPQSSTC

## Glargine (Lantus, Aventis) (ligand)
  EC50 of L6 cell proliferation (CellTiter-Glo, 2 days): 0.9 nM
  EC50 of mitogenic activity, L6 cells: 4.73 nM
  Percent mitogenic activity, L6 cells (insulin = 100): 77 percent

## IGF-I (from UniProt P05019 49-118) (ligand)
  EC50 of L6 cell proliferation (CellTiter-Glo, 2 days): 0.04 nM
  EC50 of mitogenic activity, L6 cells: 0.07 nM
  Percent mitogenic activity, L6 cells (insulin = 100): 5230 percent

## Levemir (ligand)
  EC50 of mitogenic activity, L6 cells: 14.8 nM
  Percent mitogenic activity, L6 cells (insulin = 100): 24.7 percent
